Reference: publication PMC2927601, “Molecular basis for defect in Alix-binding by alternatively spliced isoform of ALG-2 (ALG-2^ΔGF122) and structural roles of F122 in target recognition” (BMC Structural Biology, 2010)

B1: ALG-2^F122A, full-length recombinant (natural protein, human, UniProt O75340 1-191, looked up)
chain: MAAYSYRPGPGAGPGPAAGAALPDQSFLWNVFQRVDKDRSGVISDTELQQALSNGTWTPFNPVTVRSIISMFDRENKAGVNFSEFTGVWKYITDWQNVFRTYDRDNSGMIDKNELKQALSGAGYRLSDQFHDILIRKFDRQGRGQIAFDDFIQGCIVLQRLTDIFRRYDTDQDGWIQVSYEQYLSMVFSIV
notes: ALG-2, human, 191 residues, Phe122 substituted with Ala; PDB 2ZN8 is the wild-type full-length parent
B2: ALG-2^F122G, full-length recombinant (natural protein, human, UniProt O75340 1-191, looked up)
chain: MAAYSYRPGPGAGPGPAAGAALPDQSFLWNVFQRVDKDRSGVISDTELQQALSNGTWTPFNPVTVRSIISMFDRENKAGVNFSEFTGVWKYITDWQNVFRTYDRDNSGMIDKNELKQALSGGGYRLSDQFHDILIRKFDRQGRGQIAFDDFIQGCIVLQRLTDIFRRYDTDQDGWIQVSYEQYLSMVFSIV
notes: ALG-2, human, 191 residues, Phe122 substituted with Gly; PDB 2ZN8 is the wild-type full-length parent
B3: ALG-2^F122W, full-length recombinant (natural protein, human, UniProt O75340 1-191, looked up)
chain: MAAYSYRPGPGAGPGPAAGAALPDQSFLWNVFQRVDKDRSGVISDTELQQALSNGTWTPFNPVTVRSIISMFDRENKAGVNFSEFTGVWKYITDWQNVFRTYDRDNSGMIDKNELKQALSGWGYRLSDQFHDILIRKFDRQGRGQIAFDDFIQGCIVLQRLTDIFRRYDTDQDGWIQVSYEQYLSMVFSIV
notes: ALG-2, human, 191 residues, Phe122 substituted with Trp; PDB 2ZN8 is the wild-type full-length parent
B4: synthetic peptide of the ALG-2-binding site in Alix with N-terminal linker (peptide)
peptide: KGGSGGSQGPPYPTYPGYPGYSQ
notes: linker, printed in lower case; also called Alix ABS peptide; ABS oligopeptide; source: synthetic peptide (Biosynthesis Inc., USA)
B5: ALG-2^F122S, full-length recombinant (natural protein, human, UniProt O75340 1-191, looked up)
chain: MAAYSYRPGPGAGPGPAAGAALPDQSFLWNVFQRVDKDRSGVISDTELQQALSNGTWTPFNPVTVRSIISMFDRENKAGVNFSEFTGVWKYITDWQNVFRTYDRDNSGMIDKNELKQALSGSGYRLSDQFHDILIRKFDRQGRGQIAFDDFIQGCIVLQRLTDIFRRYDTDQDGWIQVSYEQYLSMVFSIV
notes: ALG-2, human, 191 residues, Phe122 substituted with Ser; PDB 2ZN8 is the wild-type full-length parent

Experiments:
[1] = biological target: B4; assay: SPR; Biacore2000, 25°C; Alix ABS peptide immobilized on CM5 chip; ALG-2 proteins 100 nM in HBS-P (10 mM HEPES-NaOH pH 7.4, 150 mM NaCl, 0.005% P20) with 100 μM CaCl2, 20 μl/min, injected 180 s; resonance signal at 10 s before dissociation phase relative to WT; settings: both partners purified
[2] = biological target: T1, ALG-2 (apoptosis-linked gene 2), wild type, full-length recombinant (human, UniProt O75340 1-191); assay: as above; settings: both partners purified
T1 construct: ALG-2, human, 22-kDa protein of 191 amino acid residues; longer (major) isoform regarded as wild type; also called WT; wild-type ALG-2

relative binding capacity (% of WT resonance signal) [1] [%] | binding result [2] | Binder
240 | – | B1
140 | – | B2
36 | – | B3
– | binds | B4
89 | – | B5
